Source: PMC12412652

Columns and labels:
[1] = target: MBP-BAX 1-166 C62S C126S, biotinylated (Avi tag, 6-histidine tag) (human), Q07812; experiment: BLI; Octet RED96; biotinylated BCL-2 family proteins (25 nM) immobilised on streptavidin biosensors, designed protein in solution; 10 mM Hepes pH 7.4, 150 mM NaCl, 3 mM EDTA, 0.05% surfactant P20, 0.5% nonfat dry milk; titrations in triplicate, 1:1 binding model
[2] = target: T1, MBP-BAK 16-186, biotinylated (Avi tag, 6-histidine tag) (human), Q16611; experiment: as above
T1 chain: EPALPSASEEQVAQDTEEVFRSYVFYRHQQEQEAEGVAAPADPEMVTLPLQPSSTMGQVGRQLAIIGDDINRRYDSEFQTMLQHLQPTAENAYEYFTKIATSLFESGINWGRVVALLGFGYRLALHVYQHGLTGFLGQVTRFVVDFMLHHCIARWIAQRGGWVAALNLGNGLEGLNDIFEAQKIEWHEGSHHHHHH

Chain of MBP-BAX 1-166 C62S C126S, biotinylated (Avi tag, 6-histidine tag) (human), Q07812 (Q07812 1-166 C62S/C126S): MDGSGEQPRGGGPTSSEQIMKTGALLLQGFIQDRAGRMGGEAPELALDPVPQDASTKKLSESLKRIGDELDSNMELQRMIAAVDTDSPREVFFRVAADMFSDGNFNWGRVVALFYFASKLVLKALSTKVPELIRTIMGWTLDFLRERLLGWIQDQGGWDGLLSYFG

Kd [1]: 464 nM
Kd [2]: > 4000 nM
Binder: SESQEDIIRNIARHLAQVGDSMDRSIPPGLVNGL (domain or fragment, modifications not checked) [MBP-fused BH3 peptide from BID]
